Measurements from article PMC3527935.

Assays:
[1] = target: soluble LDL receptor ectodomain (UniProt P01130); assay: BLI
[2] = target: soluble LDL receptor ectodomain (UniProt P01130); assay: ELISA

Sequence of soluble LDL receptor ectodomain (P01130 22-788): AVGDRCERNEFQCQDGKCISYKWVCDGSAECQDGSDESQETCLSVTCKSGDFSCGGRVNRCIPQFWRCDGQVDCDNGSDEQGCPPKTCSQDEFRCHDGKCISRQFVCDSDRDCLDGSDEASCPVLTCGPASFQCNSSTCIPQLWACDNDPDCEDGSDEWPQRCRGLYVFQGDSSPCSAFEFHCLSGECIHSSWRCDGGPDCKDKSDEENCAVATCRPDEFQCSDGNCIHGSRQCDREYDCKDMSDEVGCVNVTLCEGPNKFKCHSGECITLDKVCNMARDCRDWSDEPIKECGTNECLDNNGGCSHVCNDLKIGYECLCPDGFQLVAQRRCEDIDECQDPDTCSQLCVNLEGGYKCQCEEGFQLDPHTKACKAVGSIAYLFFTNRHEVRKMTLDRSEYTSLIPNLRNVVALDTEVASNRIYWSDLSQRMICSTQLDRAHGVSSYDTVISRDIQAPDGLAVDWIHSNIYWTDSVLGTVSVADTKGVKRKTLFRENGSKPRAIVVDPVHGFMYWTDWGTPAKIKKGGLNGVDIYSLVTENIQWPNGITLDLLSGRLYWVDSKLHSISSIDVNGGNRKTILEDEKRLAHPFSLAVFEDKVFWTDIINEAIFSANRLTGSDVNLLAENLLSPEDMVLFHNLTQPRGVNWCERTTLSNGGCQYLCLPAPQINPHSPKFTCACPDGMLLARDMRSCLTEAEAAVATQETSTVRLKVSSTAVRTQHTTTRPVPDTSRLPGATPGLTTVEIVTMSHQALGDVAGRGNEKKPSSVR

Substance	Kd [1] [nM]	koff [1] [s⁻¹]	kon [1] [M⁻¹ s⁻¹]	affinity loss against intact PCSK9 (IC50 intact/IC50 cleaved), fold [2] [fold]
purified furin-cleaved PCSK9 (from UniProt Q8NBP7) (natural protein)	356	0.0138	39000	1.1
purified hepsin-cleaved PCSK9 (from UniProt Q8NBP7) (natural protein)	268	0.00858	32000	1.4
